The target of assay [1] is T1, Native proenzyme human C1s (Comptech A103) (human, UniProt P09871 16-688).
T1 construct: mature; Bought native protein; also called native human C1s Proenzyme; native human C1s proenzyme protein (CompTech)
T1 sequence (looked up): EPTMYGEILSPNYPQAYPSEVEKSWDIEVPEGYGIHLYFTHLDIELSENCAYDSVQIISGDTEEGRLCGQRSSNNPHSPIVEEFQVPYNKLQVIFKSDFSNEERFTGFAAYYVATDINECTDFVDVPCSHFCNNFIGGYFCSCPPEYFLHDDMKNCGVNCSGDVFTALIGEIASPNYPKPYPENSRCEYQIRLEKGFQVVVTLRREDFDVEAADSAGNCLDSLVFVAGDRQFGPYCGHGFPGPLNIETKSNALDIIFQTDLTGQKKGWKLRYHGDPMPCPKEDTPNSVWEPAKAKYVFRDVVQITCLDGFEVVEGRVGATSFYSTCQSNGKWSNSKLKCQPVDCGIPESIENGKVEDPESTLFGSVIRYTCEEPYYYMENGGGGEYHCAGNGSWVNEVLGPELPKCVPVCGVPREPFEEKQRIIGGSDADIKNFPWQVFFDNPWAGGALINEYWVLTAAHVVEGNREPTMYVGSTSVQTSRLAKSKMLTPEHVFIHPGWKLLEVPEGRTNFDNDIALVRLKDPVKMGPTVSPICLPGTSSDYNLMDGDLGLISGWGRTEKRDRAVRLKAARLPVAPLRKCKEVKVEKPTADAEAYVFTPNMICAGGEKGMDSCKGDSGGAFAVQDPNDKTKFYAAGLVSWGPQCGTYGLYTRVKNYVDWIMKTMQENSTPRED
The assay can be described thus: SPR (BIACORE T200, 37 degrees C, pH 7.4), antibody captured by protein A/G, C1s 50 nM. On the procedure:
The binding specificities of the six C1s CUB1-EGF-CUB2 binders were determined at 37 degrees C. using BIACORE® T200 instrument (GE Healthcare). Recombinant Protein A/G (Pierce) was immobilized onto all flow cells of a CM4 sensor chip using an amine coupling kit (GE Healthcare). Antibodies and analytes were prepared in 7(+) buffer (20 mM ACES, 150 mM NaCl, 1.2 mM CaCl₂, 0.05% Tween 20, 0.005% NaN₃, pH 7.4). Each antibody was captured onto the sensor surface by protein A/G. Antibody capture levels were aimed at 100 resonance unit (RU). Native proenzyme human C1s (Comptech A103) (at 50 nM as a monomer) or recombinant human C1s CCP1-CCP2-SP-His (at 100 nM as a monomer) was injected, followed by dissociation. Sensor surface was regenerated each cycle with 10 mM Glycine-HCl pH 1.5. The six C1s CUB1-EGF-CUB2 binders bound to the native proenzyme human C1s, but not recombinant human C1s CCP1-CCP2-SP-His, which is a truncated protein lacking the CUB1-EGF-CUB2 domain.

Assay [2] concerns the target T2, recombinant human C1s CCP1-CCP2-SP-His (human, UniProt P09871 292-688).
T2 construct: Truncated protein lacking the CUB1-EGF-CUB2 domain; also called human C1s CCP1-CCP2-SP M292-D688
T2 sequence: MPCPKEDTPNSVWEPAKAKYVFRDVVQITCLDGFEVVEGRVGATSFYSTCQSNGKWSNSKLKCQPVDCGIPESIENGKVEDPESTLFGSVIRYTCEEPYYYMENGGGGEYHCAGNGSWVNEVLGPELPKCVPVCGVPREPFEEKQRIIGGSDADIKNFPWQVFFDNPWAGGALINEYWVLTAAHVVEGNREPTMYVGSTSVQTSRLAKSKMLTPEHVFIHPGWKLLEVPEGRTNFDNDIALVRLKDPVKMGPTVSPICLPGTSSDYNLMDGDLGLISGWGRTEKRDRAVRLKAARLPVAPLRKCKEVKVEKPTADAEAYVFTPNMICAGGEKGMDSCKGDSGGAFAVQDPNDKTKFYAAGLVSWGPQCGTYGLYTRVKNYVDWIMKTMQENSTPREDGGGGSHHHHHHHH
The assay can be described thus: SPR (BIACORE T200, 37 degrees C, pH 7.4, 1.2 mM CaCl2), antibody captured by protein A/G.

B1: COS0583gg-SG1148 (antibody, human IgG1, kappa, V domains shown)
VH: QSLEESGGRLVTPGTPLTLTCTVSGIDLSSYAMIWVRQAPGKGLEWIGIIYVRGSTYYASWAKDRFTISKTSTTVDLKITSPTTEDTATYFCARAYGGDTFSDGFDPWGPGTLVTVSS
VL: DPVMTQTPSSTSAAVGGTVTINCQSSQNVYGNNRLAWYQQKPGQPPKLLIYLASTLASGVPSRFRGNGSGTQFTLTISGVQCDDAATYYCAGGYRDDTNSFGGGTKVEIKR
notes: Constant regions as for m1; also called COS583; COS583gg(-SG1148)
In the case of B1, the binding result in assay [1] was “binds”; in assay [2] it was “no binding (tested: 100 nM)”.
